Experimental findings from the Immune Epitope Database (IEDB) are described below.

In general, Kd refers to the equilibrium constant for the complex coming apart.

The target in experiment [1] is HLA-B*07:02. As to the kind of experiment: IEDB peptide-MHC binding, purified MHC/direct/fluorescence; filed as Kd, often an IC50 or EC50 that approximates it; ≥ and ≤ were set here for values at or beyond the usual limits of such assays.
Experiment [2] has as its target HLA-B*51:01. The description is as above.
The target of experiment [3] is HLA-B*15:01. The experiment is described as follows: IEDB peptide-MHC binding, purified MHC/competitive/fluorescence; filed as Kd, often an IC50 or EC50 that approximates it; ≥ and ≤ were set here for values at or beyond the usual limits of such assays.
In experiment [4] the target is HLA-A*30:01. As to the kind of experiment: IEDB peptide-MHC binding, purified MHC/competitive/radioactivity; filed as Kd, often an IC50 or EC50 that approximates it; ≥ and ≤ were set here for values at or beyond the usual limits of such assays.
Experiment [5] has as its target HLA-B*15:03. The description is as above.
The target in experiment [6] is HLA-A*32:01. The experiment is described as above.
Experiment [7] concerns the target HLA-B*08:01. The description is as above.
Experiment [8] deals with HLA-B*15:01. Described as above.
For experiment [9], the target named is HLA-B*39:01. The experiment is described as follows: IEDB peptide-MHC binding, purified MHC/competitive/fluorescence; filed as Kd, often an IC50 or EC50 that approximates it; ≥ and ≤ were set here for values at or beyond the usual limits of such assays. Particulars: source organism: Homo sapiens.
Experiment [10] concerns the target HLA-B*15:17. The experiment is described as above. The conditions noted are these: source organism: Homo sapiens.
Experiment [11] deals with HLA-B*57:01. The experiment is described as above. Particulars: source organism: Homo sapiens.
Experiment [12] addresses HLA-B*46:01. The description is as above. Particulars: source organism: Homo sapiens.
The target in experiment [13] is HLA-B*18:01. The description is as above. Particulars: source organism: Homo sapiens.
Experiment [14] deals with HLA-A*26:01. The description is as above. The conditions noted are these: source organism: Homo sapiens.
In experiment [15] the target is HLA-A*69:01. The description is as above. Particulars: source organism: Homo sapiens.
Experiment [16] addresses HLA-B*51:01. The experiment is described as above. The conditions noted are these: source organism: Homo sapiens.
The target in experiment [17] is HLA-B*27:03. The experiment is described as above. Particulars: source organism: Homo sapiens.
For experiment [18], the target named is HLA-B*15:42. Described as above.
Experiment [19] deals with HLA-B*45:06. The experiment is described as above.
Experiment [20] has as its target HLA-B*83:01. The experiment is described as above.
Experiment [21] addresses HLA-A*11:01. As to the kind of experiment: IEDB peptide-MHC binding, purified MHC/direct/fluorescence; filed as Kd, often an IC50 or EC50 that approximates it; ≥ and ≤ were set here for values at or beyond the usual limits of such assays. Particulars: source organism: Camelpox virus CMS.
Experiment [22] has as its target HLA-A*03:01. The experiment is described as above. The conditions noted are these: source organism: Camelpox virus CMS.
Setting [23] is: source organism: Vibrio vulnificus.
The mark [24] stands for this setting: source organism: Vaccinia virus.
Setting [25] is: source organism: Vaccinia virus Copenhagen.
The mark [26] stands for this setting: source organism: Mycobacterium tuberculosis variant bovis BCG str. Pasteur 1173P2.
Setting [27] is: source organism: Brucella abortus.
The mark [28] stands for this setting: source organism: Vaccinia virus WR.

With NAFGWENAY, the Kd in experiment [1] (setting [23]) is 0.35 µM; in [2] (setting [23]), not below 20 µM; in experiment [3] (source organism: Vibrio vulnificus YJ016) it was 1.32 µM.

With QTIVFIWFI, the Kd came to 6.24 µM in [4] (setting [24]); 1.03 µM in experiment [5] (setting [24]); 1.76 µM in experiment [6] (setting [24]); 16.9 µM in experiment [7] (setting [24]); 0.253 µM in experiment [8] (setting [24]).

Regarding SPGIRPRFL, the Kd in experiment [4] (setting [25]) stood at 8.43 µM; in [5] (setting [25]), 10.3 µM; in experiment [6] (setting [25]), 2.81 µM; in experiment [7] (setting [25]) it was 0.0558 µM; in experiment [8] (setting [25]), 1.92 µM.

Turning to SLGDPLHQA, the Kd in experiment [9], in experiment [10], in [11], in experiment [12], in experiment [13] and in experiment [14] was not below 20 µM each time. Besides, the equilibrium dissociation constant (Kd) in experiment [15], in experiment [16], in experiment [3] (source organism: Homo sapiens) and in [17] was not below 20 µM in each case.

In turn, LPDLPTTTI yielded a Kd in experiment [2] (source organism: Staphylococcus aureus) of 0.922 µM.

Consider HPVTATISF, for which the Kd in [18] (setting [26]) is not below 5 µM; in experiment [19] (setting [26]) it was not below 5 µM; in experiment [20] (setting [26]), 0.616 µM.

RPNPDFNTF: the figures for the Kd in [1] (setting [27]), in experiment [2] (setting [27]) and in experiment [3] (source organism: Brucella melitensis bv. 1 str. 16M) were 0.0126 µM, not below 20 µM and 3 µM, respectively.

On to LIPFLILFI, for which the Kd was 0.097 µM in experiment [4] (setting [25]); 0.195 µM in [5] (setting [25]); 12.1 µM in experiment [6] (setting [25]); 0.0497 µM in experiment [7] (setting [25]); 0.471 µM in [8] (setting [25]).

As for KTLKYSNKI, the equilibrium dissociation constant (Kd) in [4] (setting [28]) was 0.0375 µM; in experiment [5] (setting [28]), 0.448 µM; in experiment [6] (setting [28]) it was 0.0019 µM; in [7] (setting [28]) it was 1.18 µM; in experiment [8] (setting [28]), 0.123 µM.

In the case of HLYNILNNI, the Kd was found to be 1.45 µM in experiment [4] (setting [28]); 1.4 µM in experiment [5] (setting [28]); 0.0726 µM in experiment [6] (setting [28]); 1.97 µM in [7] (setting [28]); 1.48 µM in experiment [8] (setting [28]).

For the sequence LMYPTTLLK, the Kd was 0.0022 µM in [21]; 0.0045 µM in [22]; not below 5 µM in experiment [18] (setting [28]); not below 5 µM in [19] (setting [28]); not below 5 µM in experiment [20] (setting [28]).
